Source: patent US20170281749A1

Legend:
[1] = target: CH505TF gp120 GCN4 Trimer; experiment: SPR
CH505TF gp140 Trimer = experiment: SPR

Substance | Kd [1] [nM] | Kd (CH505TF gp140 Trimer) [nM]
2G12 (-CHO) | 169 | 6.5
19b (V3) | 0.8 | 1.2
697 D (V2) | 554 | 170
A32 (C1) | 2.9 | 3
CH01 (V1-V2) | > 100000 | –
CH58 (V2) | 104 | 60.5
CH103_UCA (CD4 bs) | 14.6 | 36.1
CH106 (CD4 bs) | 5.5 | 5.81
F105 (CD4 bs) | 40.7 | 24.9
PG9 (V1-V2) | 159 | 69.2
PGT128 (-CHO) | 53 | 20.3
VRC01 (CD4 bs) | 2.5 | 2.4
